From paper PMC7677135 (Biophysical Journal, 2020)

Target: T1, PDK1 50–359 [Y288G,Q292A] (human, UniProt O15530 50-359, Y288G | Q292A)
T1 sequence (looked up): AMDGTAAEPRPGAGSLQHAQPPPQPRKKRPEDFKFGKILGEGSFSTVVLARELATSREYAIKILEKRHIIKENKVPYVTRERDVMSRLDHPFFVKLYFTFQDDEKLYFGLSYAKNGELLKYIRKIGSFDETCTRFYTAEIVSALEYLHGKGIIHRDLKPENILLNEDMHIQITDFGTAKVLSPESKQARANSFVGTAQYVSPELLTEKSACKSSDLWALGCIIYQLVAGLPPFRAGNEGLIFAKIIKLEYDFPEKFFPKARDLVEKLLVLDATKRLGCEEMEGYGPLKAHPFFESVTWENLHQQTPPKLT
Test: HDX-MS

binding result: binds
B1: PIFtide (peptide)
peptide: REPRILSEEEQEMFRDFDYIADWC
